To fix the notation:
B1: HCMV glycoprotein L (gL) (natural protein)
chain: AAVSVAPTAAEKVPAECPELTRRCLLGEVFEGDKYESWLRPLVNVTGRDGPLSQLIRYRPVTPEAANSVLLDEAFLDTLALLYNNPDQLRALLTLLSSDTAPRWMTVMRGYSECGDGSPAVYTCVDDLCRGYDLTRLSYGRSIFTEHVLGFELVPPSLFNVVVAIRNEATRTNRAVRLPVSTAAAPEGITLFYGLYNAVKEFCLRHQLDPPLLRHLDKYYAGLPPELKQTRVNLPAHSRYGPQAVDAR
notes: source: 293EBNA cells, transfected with individual plasmids encoding each subunit
B2: HCMV UL131A-K27R (natural protein)
chain: QCQRETAERNDYYRVPHYWDACSRALPDQTRYKYVEQLVDLTLNYHYDASHGLDNFDVLKRINVTEVSLLISDFRRQNRRGGTNKRTTFNAAGSLAPHARSLEFSVRLFAN
notes: also called UL131A-K27R mutation; source: 293EBNA cells, transfected with individual plasmids encoding each subunit
B3: HCMV UL130 (natural protein)
chain: SPWSTLTANQNPSPPWSKLTYSKPHDAATFYCPFLYPSPPRSPLQFSGFQRVSTGPECRNETLYLLYNREGQTLVERSSTWVKKVIWYLSGRNQTILQRMPRTASKPSDGNVQISVEDAKIFGAHMVPKQTKLLRFVVNDGTRYQMCVMKLESWAHVFRDYSVSFQVRLTFTEANNQTYTFCTHPNLIV
notes: source: 293EBNA cells, transfected with individual plasmids encoding each subunit; not shown: Strep-tag II, C-terminal, kept

Conditions in all cases: both partners purified
Test [1] addresses T1, HCMV glycoprotein H (gH), soluble, terminated at amino acid 715 (human cytomegalovirus (HCMV), Merlin …, UniProt Q6SW67 24-715).
T1 construct: source: 293EBNA cells, transfected with individual plasmids encoding each subunit
T1 sequence: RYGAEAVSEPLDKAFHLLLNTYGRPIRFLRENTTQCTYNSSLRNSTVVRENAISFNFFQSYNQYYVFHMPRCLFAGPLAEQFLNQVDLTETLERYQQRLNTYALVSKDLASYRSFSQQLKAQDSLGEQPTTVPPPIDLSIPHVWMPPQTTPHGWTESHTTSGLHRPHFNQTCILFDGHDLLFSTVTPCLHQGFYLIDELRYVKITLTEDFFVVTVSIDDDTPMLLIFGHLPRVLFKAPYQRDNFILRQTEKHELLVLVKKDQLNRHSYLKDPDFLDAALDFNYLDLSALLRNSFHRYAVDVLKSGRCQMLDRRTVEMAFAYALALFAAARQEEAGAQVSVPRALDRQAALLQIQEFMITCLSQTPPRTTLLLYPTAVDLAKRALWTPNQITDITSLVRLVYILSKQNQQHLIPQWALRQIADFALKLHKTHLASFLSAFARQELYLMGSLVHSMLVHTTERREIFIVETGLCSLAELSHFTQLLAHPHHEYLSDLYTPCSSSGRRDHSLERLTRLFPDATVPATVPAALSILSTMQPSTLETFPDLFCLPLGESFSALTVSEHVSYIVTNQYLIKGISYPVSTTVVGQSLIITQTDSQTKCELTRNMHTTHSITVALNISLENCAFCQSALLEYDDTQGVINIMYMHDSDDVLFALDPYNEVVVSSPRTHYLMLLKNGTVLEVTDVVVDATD
In words: non-reducing SDS-PAGE with western blot; purified Pentamer, non-boiled and non-reduced (-/-), blotted with rabbit polyclonal anti-Pentamer antibody. (In western blotting, separated proteins are transferred to a membrane and probed.)

The test “HCMV UL130” addresses B3. The experiment in a line: cross-linking; purified unbound Pentamer (with UL131A-K27R), 36 pmol, 600-fold excess of DSSG-d0/d6 (links lysines up to 25 Å apart), 10 mM HEPES pH 7.5, 300 mM NaCl, RT, 30 min; cross-linked peptides identified by LC-MS/MS (xQuest).
Test [2] concerns the target T1, HCMV glycoprotein H (gH), soluble, …. The description is as above.

Regarding B1, the binding result in test [1] is on record as “binds”.

Take B2: in the test with HCMV UL130, the binding result was “binds”.

B3: the binding result in test [2] is listed as “binds”.

(Values after PMC4617720, “Antigenic Characterization of the HCMV gH/gL/gO and Pentamer Cell Entry Complexes Reveals Binding Sites for Potently Neutralizing Human Antibodies” (PLoS Pathogens, 2015).)
